Experimental data from US6576437B2, “Stimulus-inducible protein kinase complex and methods of use therefor” (Signal Pharmaceuticals, Inc., priority 1996, dated 2003).
Entries after “also recorded” stand apart in the source; their conditions may differ. Square brackets hold non-standard residues; d marks the D form. Ends that are not written are not given here. Peptide text beside a SMILES is read from it. pS = N[C@@H](COP(=O)(O)O)C(=O)O

Columns and labels:
IKK signalsome [1] = target: T1, IKK signalsome (Homo sapiens, UniProt O14920+O15111); assay: Phosphorylation of synthetic peptides by the IKK signalsome (immunokinase assay); type: biochemical; conditions: peptide 100 μM; for phosphorylation of peptide by IKK signalsome: γ-[32P]-ATP, one hour at room temperature
T1 construct: endogenous in cells; host or cells: HeLa / HeLa S3 cells stimulated with TNFα; anti-MKP-1 immunoprecipitate
Experimental: FIG. 9A is an autoradiogram depicting the results of an immunokinase assay in which peptides are phosphorylated by the IKK signalsome. In the top panel, IκBα(21-41) peptides that were unphosphorylated or chemically phosphorylated on either Ser-32 or Ser-36 were incubated with the IKK signalsome in the presence of γ-[^32P]-ATP.
Phosphorylation of these peptides (100 μM) was performed using a kinase reaction as described above. Reactions were for one hour at room temperature and were terminated by the addition of SDS-PAGE loading buffer. SDS-PAGE with a 16% Tris/tricine gel (Novex, San Diego, Calif.) or a 4-20% Tris/glycine gel (Novex, San Diego, Calif.) was used to characterize the reaction products. Gels were washed, dried in vacuo, and exposed to autoradiographic film.

IKK signalsome [2] = target: T1, IKK signalsome; assay: IKK signalsome activity in anti-MKP-1 immunoprecipitates from TNFα-stimulated HeLa S3 cells pretreated with inhibitor; type: cell-based; conditions: HeLa S3 cells pretreated 30 min with 15 μM prior to TNFα (20 ng/ml, 7 min)
Experimental: FIG. 8B illustrates the stimulus-dependent activation of IKK signalsome, which is blocked by TPCK. Anti-MKP-1 immunoprecipitates from cell extracts of HeLa S3 cells either stimulated for 7 min with TNFα (20 ng/ml, lane 2 and 6), IL-1 (10 ng/ml, lane 3), PMA (50 ng/ml, lane 4) or pretreated for 30 min with TPCK (15 μM, lane 7) prior to TNFα-induction were examined for IKK signalsome activity. GST IκBα 1-54 WT (4 μg) was used as a substrate.
For these studies, small scale immunoprecipitation were performed using two 150 mm plates of HeLa cells (one stimulated and one unstimulated). Whole cell lysates were diluted 4-fold with 2×Pull-Down Buffer (40 mM Tris pH 8.0, 500 mM NaCl, 0.1% NP-40, 6 mM EDTA, 6 mM EGTA, 10 mM β-glycerophosphate, 10 mM NaF, 10 mM PNPP, 300 μM Na3VO4, 1 mM benzamidine, 2 μM PMSF, 10 μg/ml aprotonin, 1 μg/ml leupeptin, 1 μg/ml pepstatin, 1 mM DTT) and 2-4 μg of the indicated antibody was added. Lysates were incubated on ice for 1-2 hours, 10 μl of Protein A or G beads were added, and lysates were left to incubate with gentle rotation for an additional 1 hour at 4° C. The immunoprecipitate was then washed 3 times with 2×Pull-Down Buffer, 1× with kinase buffer without ATP and subjected to a kinase assay as described in Example 2. […]

IKK signalsome [3] = target: T1, IKK signalsome; assay: Inhibition of immunopurified IKK signalsome activity (32P incorporation into GST-IκBα(1-54)); type: biochemical; conditions: GST-IκBα(1-54) 0.56 μM, ATP 3 μM; for inhibition of IKK signalsome kinase (phosphorylation of GST-IκBα (1-54)): one hour at room temperature
Experimental: FIG. 9B is a graph illustrating the inhibition of phosphorylation of GST-IκBα (1-54) by IκBα(21-41) peptides. […] This assay only detects precipitated ^32P-labeled proteins, not ^32P-labeled peptides. Addition of the singly- or non-phosphorylated IκBα(21-41) peptides results in less phosphorylation of GST-IκBα (1-54) and apparent inhibition.
Inhibition of immunopurified IKK signalsome activity was measured by ^32P incorporation into GST-IκBα(1-54) in a discontinuous assay using the reaction conditions described above. The concentrations of GST-IκBα(1-54) and ATP used in the inhibition studies were 0.56 μM and 3 μM, respectively. Enzymatic reactions (32 μL) were carried out in wells of a 96 well assay plate for one hour at room temperature and terminated with the addition of trichloroacetic acid (TCA) (150 μL/well of 12.5% w/v). The subsequent 20 minute incubation with TCA precipitated the proteins but not peptides from solution. The TCA precipitate was collected on 96-well glass fiber plates (Packard) and washed 10 times with approximately 0.3 mL per well of Dulbecco's phosphate buffered saline pH 7.4 (Sigma) using a Packard Filtermate 196. Scintillation fluid (0.50 mL, MicroScint, Packard) was added to each well and the plate was analyzed for ^32P using a Packard TopCount scintillation counter. Less than 10% of ATP was turned over in the course of the assay reaction, ensuring that the kinetic data represented initial rate data. The inhibition constant of the P32, 36 peptide was determined by Dixon analysis (Dixon and Webb, In Enzymes (Academic Press: New York, ed. 3, 1979), pp. 350-51.

[4] = system: RelA translocation in HeLa cells; assay: RelA nuclear translocation in transiently transfected HeLa cells (immunofluorescence); type: cell-based, human
Experimental: HeLa cells were transiently transfected with either HA-tagged IKK-1 K44 to M mutant (14B) or Flag-tagged IKK-2 K44 to M mutant (14C) expression vectors. 36 hours post-transfection cells were either not stimulated (Unstim) or TNFα-stimulated (20 ng/ml) for 30 min (TNFα), as indicated to the right of the figure. Cells were then subjected to immunofluorescence staining using anti-HA of anti-Flag antibodies to visualize expression of IKK-1 K44 to M or IKK-2 K44 to M, respectively. Stimulus-dependent translocation of Rel A was monitored using anti-Rel A antibodies. Antibodies used are indicated to the top of the figure. IKK mutant transfected is indicated to the left of the figure.
For these studies, HeLa cells were transiently transfected with either HA-tagged IKK-1 or Flag-tagged IKK-2. Cells were fixed for 30 minutes with methanol. For immunofluorescence staining, the cells were incubated sequentially with primary antibody in PBS containing 10% donkey serum and 0.25% Triton X-100 for 2 hours followed by fluorescein-conjugated or Texas red-conjugated secondary antibody (Jackson Immunoresearch Laboratories, Inc., West Grove, Pa.; used at 1:500 dilution) for 1 hour at room temperature. The coverslips were rinsed and coverslipped with Vectashield (Vector Laboratories, Burlingame, Calif.) before scoring and photographing representative fields. […]

T1 sequence (O15111 whole entry): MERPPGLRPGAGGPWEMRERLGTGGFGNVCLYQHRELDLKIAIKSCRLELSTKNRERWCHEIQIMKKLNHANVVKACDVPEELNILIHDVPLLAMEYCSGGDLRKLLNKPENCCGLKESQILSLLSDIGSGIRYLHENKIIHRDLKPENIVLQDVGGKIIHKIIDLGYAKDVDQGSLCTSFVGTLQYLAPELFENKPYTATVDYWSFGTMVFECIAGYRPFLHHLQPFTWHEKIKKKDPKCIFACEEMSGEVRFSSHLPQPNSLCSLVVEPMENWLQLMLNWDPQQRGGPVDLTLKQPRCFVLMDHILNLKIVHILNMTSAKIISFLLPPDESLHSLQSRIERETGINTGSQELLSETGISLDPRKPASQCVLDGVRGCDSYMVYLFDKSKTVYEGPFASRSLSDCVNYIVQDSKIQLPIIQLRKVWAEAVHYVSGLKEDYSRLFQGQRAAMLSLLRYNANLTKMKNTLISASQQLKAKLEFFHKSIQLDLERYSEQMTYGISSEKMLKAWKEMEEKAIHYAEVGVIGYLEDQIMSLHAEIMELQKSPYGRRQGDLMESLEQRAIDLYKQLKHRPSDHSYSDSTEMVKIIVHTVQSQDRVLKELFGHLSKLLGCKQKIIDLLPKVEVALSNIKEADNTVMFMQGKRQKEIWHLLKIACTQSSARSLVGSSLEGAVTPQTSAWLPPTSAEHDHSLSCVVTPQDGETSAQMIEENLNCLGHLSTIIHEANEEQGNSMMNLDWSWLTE
T1 sequence (O14920 whole entry): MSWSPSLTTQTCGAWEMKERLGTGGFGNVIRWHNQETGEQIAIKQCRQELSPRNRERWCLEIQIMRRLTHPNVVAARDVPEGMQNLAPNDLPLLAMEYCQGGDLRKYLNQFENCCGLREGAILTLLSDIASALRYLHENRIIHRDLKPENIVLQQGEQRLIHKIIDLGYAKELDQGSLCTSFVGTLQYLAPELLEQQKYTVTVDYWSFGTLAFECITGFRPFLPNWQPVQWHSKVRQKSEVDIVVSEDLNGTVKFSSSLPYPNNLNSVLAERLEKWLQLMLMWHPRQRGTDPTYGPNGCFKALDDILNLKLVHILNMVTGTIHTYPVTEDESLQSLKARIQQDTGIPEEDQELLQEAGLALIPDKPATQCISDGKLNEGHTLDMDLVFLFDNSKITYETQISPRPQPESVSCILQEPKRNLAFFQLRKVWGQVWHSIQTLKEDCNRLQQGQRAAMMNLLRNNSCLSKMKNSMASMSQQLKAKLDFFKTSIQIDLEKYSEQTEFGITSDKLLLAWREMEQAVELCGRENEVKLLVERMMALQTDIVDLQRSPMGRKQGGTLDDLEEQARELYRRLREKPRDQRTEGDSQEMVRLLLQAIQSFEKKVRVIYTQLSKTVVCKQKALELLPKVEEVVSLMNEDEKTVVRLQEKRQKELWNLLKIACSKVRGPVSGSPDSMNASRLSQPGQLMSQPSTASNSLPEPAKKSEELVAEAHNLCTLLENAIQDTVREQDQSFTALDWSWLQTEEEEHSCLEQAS
T1 sequence (Q9Y6K9 whole entry partner): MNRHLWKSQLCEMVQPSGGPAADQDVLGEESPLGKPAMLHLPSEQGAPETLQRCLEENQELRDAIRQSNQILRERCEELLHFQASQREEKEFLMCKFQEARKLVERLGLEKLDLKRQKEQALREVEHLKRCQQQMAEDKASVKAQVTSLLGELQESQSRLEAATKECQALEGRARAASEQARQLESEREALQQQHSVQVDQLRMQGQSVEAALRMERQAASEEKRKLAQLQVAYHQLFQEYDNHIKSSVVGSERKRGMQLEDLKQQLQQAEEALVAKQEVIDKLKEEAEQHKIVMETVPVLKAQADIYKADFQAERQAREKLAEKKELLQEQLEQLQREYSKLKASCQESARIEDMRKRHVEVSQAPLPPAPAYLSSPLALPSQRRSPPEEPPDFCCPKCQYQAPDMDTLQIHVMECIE

For CKKERLLDDRHDTGLDTMKDEE, the “phosphorylation by the signalsome, fold less well than the wild-type serine-containing peptide” value (IKK signalsome [1]) was “at least 10 fold”.

For `Cc1ccc(S(=O)(=O)N[C@@H](Cc2ccccc2)C(=O)CCl)cc1` [TPCK], the “IKK signalsome activity in treated cells” value (IKK signalsome [2]) was “inhibited; also recorded: blocked”.

With CPTNSALNYLKSPITTSPS [MKP-1 peptide] the “phosphorylation of peptide by IKK signalsome” value (“phosphorylation of peptide” below) (IKK signalsome [1]) was “did not phosphorylate”.

In the case of “singly-phosphorylated IκBα peptides: two IκBα (21-41) peptides, free serine at position 32 or 36 and phosphoserine at the other position (KKERLLDDRHDSGLDSMKDEE; not fully specified (N-terminus); also: pS at S32 or S36, free Ser at the other (two peptides); UniProt P25963 21-41, looked up, fragment)”, the “inhibition of IKK signalsome kinase (phosphorylation of GST-IκBα (1-54))” value (shortened to “inhibition of IKK signalsome kinase”) (IKK signalsome [3]) is reported as “less effective inhibitors”.

With “CKKERLLDDRHDSGLDSMKDEE [IκBα (21-41) peptide]” the “inhibition of IKK signalsome kinase” value (IKK signalsome [3]) was “less effective inhibitors” and the “phosphorylation of peptide” value (IKK signalsome [1]) was “capable of phosphorylating”.

In the case of `CSCC[C@H](NC(=O)[C@H](COP(=O)(O)O)NC(=O)[C@H](CC(=O)O)NC(=O)[C@H](CC(C)C)NC(=O)CNC(=O)[C@H](COP(=O)(O)O)NC(=O)[C@H](CC(=O)O)NC(=O)[C@H](Cc1c[nH]cn1)NC(=O)[C@H](CCCNC(=N)N)NC(=O)[C@H](CC(=O)O)NC(=O)[C@H](CC(=O)O)NC(=O)[C@H](CC(C)C)NC(=O)[C@H](CC(C)C)NC(=O)[C@H](CCCNC(=N)N)NC(=O)[C@H](CCC(=O)O)NC(=O)[C@H](CCCCN)NC(=O)[C@H](CCCCN)NC(=O)[C@@H](N)CS)C(=O)N[C@@H](CCCCN)C(=O)N[C@@H](CC(=O)O)C(=O)N[C@@H](CCC(=O)O)C(=O)N[C@@H](CCC(=O)O)C(=O)O` [IκBα(21-41) peptide P32,36] (H-CKKERLLDDRHD[pS]GLD[pS]MKDEE-OH), the Ki (IKK signalsome [3]; Dixon analysis, read-out: Ki (product inhibition of GST-IκBα (1-54) phosphorylation)) is reported as 14 µM.

“DLTGGPEVAT(PO3)PESEEAFLP [c-Fos(222-241)]” was tested, and the “inhibition of IKK signalsome kinase” value (IKK signalsome [3]) was “does not function as an inhibitor”, the “inhibition of IKK signalsome kinase” value (IKK signalsome [3]; listed as c-Fos phosphopeptide) was “not” and the “inhibition of IKK signalsome kinase” value (IKK signalsome [3]; listed as c-fos phosphopeptide) was “not”. The “phosphorylation of peptide” value (IKK signalsome [1]) was “did not function as a signalsome substrate” and the “phosphorylation of peptide” value (IKK signalsome [1]; listed as c-Fos phosphopeptide) was “did not phosphorylate”.

B1: IKK-2 mutant: Flag-tagged kinase-inactive version (K44 to M) of IKK-2 (protein, UniProt O14920 1-756, looked up, variant K44M)
Inhibitor of nuclear factor …: MSWSPSLTTQTCGAWEMKERLGTGGFGNVIRWHNQETGEQIAIMQCRQELSPRNRERWCLEIQIMRRLTHPNVVAARDVPEGMQNLAPNDLPLLAMEYCQGGDLRKYLNQFENCCGLREGAILTLLSDIASALRYLHENRIIHRDLKPENIVLQQGEQRLIHKIIDLGYAKELDQGSLCTSFVGTLQYLAPELLEQQKYTVTVDYWSFGTLAFECITGFRPFLPNWQPVQWHSKVRQKSEVDIVVSEDLNGTVKFSSSLPYPNNLNSVLAERLEKWLQLMLMWHPRQRGTDPTYGPNGCFKALDDILNLKLVHILNMVTGTIHTYPVTEDESLQSLKARIQQDTGIPEEDQELLQEAGLALIPDKPATQCISDGKLNEGHTLDMDLVFLFDNSKITYETQISPRPQPESVSCILQEPKRNLAFFQLRKVWGQVWHSIQTLKEDCNRLQQGQRAAMMNLLRNNSCLSKMKNSMASMSQQLKAKLDFFKTSIQIDLEKYSEQTEFGITSDKLLLAWREMEQAVELCGRENEVKLLVERMMALQTDIVDLQRSPMGRKQGGTLDDLEEQARELYRRLREKPRDQRTEGDSQEMVRLLLQAIQSFEKKVRVIYTQLSKTVVCKQKALELLPKVEEVVSLMNEDEKTVVRLQEKRQKELWNLLKIACSKVRGPVSGSPDSMNASRLSQPGQLMSQPSTASNSLPEPAKKSEELVAEAHNLCTLLENAIQDTVREQDQSFTALDWSWLQTEEEEHSCLEQAS
modifications: Flag tag
In the case of B1, the “inhibition of RelA nuclear translocation” value ([4]; TNFα-stimulated (20 ng/ml, 30 min) HeLa cells, 36 hours post-transfection) is reported as “striking and complete” and the “effect on subcellular localization of RelA” value ([4]; unstimulated HeLa cells) is reported as “no effect”.
